Laboratory results published in patent US8389575B2, “Control of enzymatic peracid generation” (E.I. du Pont de Nemours and Company, priority 2008, dated 2013).

What was measured:
[1] = Dependence of specific activity on pH for hydrolysis of triacetin by CE-7 esterases/perhydrolases (cell extracts of E. coli KLP18 transformants); assay type: biochemical; details: 200 mM triacetin, 25° C.
Method: A cell extract of an E. coli transformant expressing perhydrolase from Thermotoga neapolitana (KLP18/pSW196), Thermotoga maritima MSB8 (KLP18/pSW207), Bacillus pumilus PS213 (KLP1S/pSW195), Bacillus subtilis BE1010 (KLP18/pSW189), Bacillus subtilis ATCC® 31954™ (KLP18/pSW194), or Bacillus licheniformis ATCC® 14580™ (KLP18/pSW191) was prepared by passing a suspension of cell paste (20 wt % wet cell weight) in 0.05 M potassium phosphate buffer (pH 7.0) containing dithiothreitol (1 mM) twice through a French press having a working pressure of 16,000 psi (˜110 MPa). The crude extract was then centrifuged at 20,000×g to remove cellular debris, producing a clarified cell extract that was assayed for total soluble protein (Bicinchoninic Acid Kit for Protein Determination, Sigma Aldrich catalog #BCA1-KT). A portion of the clarified Thermotoga maritima MSB8 or Thermotoga neapolitana perhydrolase-containing extract was additionally heated for 20 min at 75° C., followed immediately by cooling in an ice/water bath to 5° C. The resulting mixture was centrifuged to remove precipitated protein, and the supernatant collected and assayed for total soluble protein as before.
Reactions (10 mL total volume) containing triacetin (200 mM) and cell extract supernatant (prepared as described above) were run at 25° C. and at a pH between 4.5 and 10.0, using the buffers and buffer concentrations listed in Table 5. The concentration of extract total protein (with or without heat-treatment to denature and precipitate E. coli-derived protein) was chosen to produce an ca. 50 mM decrease in triacetin concentration over 30 min (typically from 0.025 mg/mL to 0.40 mg/mL of total extract protein, dependent on the perhydrolase). A control reaction for each reaction condition was run to determine the concentration of triacetin hydrolyzed in the absence of added extract protein. Samples (100 μL) were removed at predetermined times and immediately added to 297 μL of dd H2O and 3 μL of 6N HCL. The resulting solution was mixed, then filtered using a 30,000 NMWL filter (Millipore) using a microcentrifuge for 2 min at 12,000 rpm. An aliquot of the filtrate (100 μL) was added to 150 μL of 0.417 mM N,N-diethyl meta-toluamide (external standard) in acetonitrile, and the resulting solution analyzed for triacetin by HPLC using a Supelco Discovery C8 column (25 cm×4.0 mm, 5 um; Supelco #59353-U40) and an isocratic mobile phase of 40% acetonitrile/60% distilled water at a flow rate of 1 mL/min. Triacetin was measured by UV detection at 225 nm.

[2] = Peracetic acid production by perhydrolases, control by initial reaction pH in sodium citrate buffer; assay type: biochemical; details: triacetin 100 mM, 0.050 mg/mL extract total protein, 25° C.
Method: A cell extract of a transformant expressing perhydrolase from Bacillus pumilus PS213 (KLP18/pSW195), Thermotoga maritima MSB8 (KLP18/pSW207), Thermotoga neapolitana (KLP18/pSW196), or Bacillus subtilis ATCC® 31954™ (KLP18/pSW194) was prepared by passing a suspension of cell paste (20 wt % wet cell weight) in 0.05 M potassium phosphate buffer (pH 7.0) containing dithiothreitol (1 mM) twice through a French press having a working pressure of 16,000 psi (˜110 MPa). The crude extract was then centrifuged at 20,000×g to remove cellular debris, producing a clarified cell extract that was assayed for total soluble protein (Bicinchoninic Acid Kit for Protein Determination, Sigma Aldrich catalog #BCA1-KT). The supernatant was frozen in dry ice and stored at −80° C.
Reactions (10 mL total volume) containing triacetin, hydrogen peroxide and centrifuged cell extract supernatant (prepared as described above) in 50 mM sodium citrate buffer (initial pH 7.2 or 6.5) were run at 25° C. A control reaction for each reaction condition was run to determine the concentration of peracetic acid produced by chemical perhydrolysis of triacetin by hydrogen peroxide in the absence of added extract protein (data not shown). Determination of the concentration of peracetic acid in the reaction mixtures was performed according to the method described by Karst et al., supra.

[3] = initial pH 6.5, sodium citrate 50 mM, H2O2 100 mM
[4] = initial pH 6.5, sodium citrate 50 mM, H2O2 250 mM
[5] = initial pH 7.2, sodium citrate 50 mM, H2O2 100 mM
[6] = initial pH 7.2, sodium citrate 50 mM, H2O2 250 mM

B1: B. pumilus PS213: acetyl xylan esterase with perhydrolase activity from Bacillus pumilus PS213 (SEQ ID NO: 10), cell extract of E. coli KLP18/pSW195 (protein, listed as Bacillus pumilis)
chain: MQLFDLSLEELKKYKPKKTARPDFSDFWKKSLEELRQVEAEPTLESYDYPVKGVKVYRLTYQSFGHSKIEGFYAVPDQTGPHPALVRFHGYNASYDGGIHDIVNWALHGYATFGMLVRGQGGSEDTSVTPGGHALGWMTKGILSKDTYYYRGVYLDAVRALEVIQSFPEVDEHRIGVIGGSQGGALAIAAAALSDIPKVVVADYPYLSNFERAVDVALEQPYLEINSYFRRNSDPKVEEKAFETLSYFDLINLAGWVKQPTLMAIGLIDKITPPSTVFAAYNHLETDKDLKVYRYFGHEFIPAFQTEKLSFLQKHLLLST
specific activity (mmol triacetin/min/mg total extract protein) ([1]; pH 5.0, sodium acetate 0.15 M): 1.8 mmol triacetin/min/mg total extract protein | specific activity (mmol triacetin/min/mg total extract protein) ([1]; pH 5.5, sodium acetate 0.15 M): 3.5 mmol triacetin/min/mg total extract protein | specific activity (mmol triacetin/min/mg total extract protein) ([1]; pH 6.0, sodium citrate 0.15 M): 4.2 mmol triacetin/min/mg total extract protein | specific activity (mmol triacetin/min/mg total extract protein) ([1]; pH 6.5, sodium citrate 0.15 M): 11.6 mmol triacetin/min/mg total extract protein | specific activity (mmol triacetin/min/mg total extract protein) ([1]; pH 7.0, potassium phosphate 0.15 M): 30.5 mmol triacetin/min/mg total extract protein | specific activity (mmol triacetin/min/mg total extract protein) ([1]; pH 7.5, potassium phosphate 0.15 M): 33.7 mmol triacetin/min/mg total extract protein | specific activity (mmol triacetin/min/mg total extract protein) ([1]; pH 8.0, potassium phosphate 0.20 M): 53.9 mmol triacetin/min/mg total extract protein | specific activity (mmol triacetin/min/mg total extract protein) ([1]; pH 8.5, Tris(hydroxymethyl)aminomethane 0.20 M): 72.4 mmol triacetin/min/mg total extract protein | specific activity (mmol triacetin/min/mg total extract protein) ([1]; pH 9.0, Tris(hydroxymethyl)aminomethane 0.20 M): 80.4 mmol triacetin/min/mg total extract protein | specific activity (mmol triacetin/min/mg total extract protein) ([1]; pH 9.5, glycine 0.20 M): 71.1 mmol triacetin/min/mg total extract protein | PAA, 1 min (ppm) [2, 3]: 170 ppm | PAA, 5 min (ppm) [2, 3]: 310 ppm | PAA, 30 min (ppm) [2, 3]: 830 ppm | PAA, 1 min (ppm) [2, 4]: 281 ppm | PAA, 5 min (ppm) [2, 4]: 652 ppm | PAA, 30 min (ppm) [2, 4]: 1984 ppm | PAA, 1 min (ppm) [2, 5]: 160 ppm | PAA, 5 min (ppm) [2, 5]: 322 ppm | PAA, 30 min (ppm) [2, 5]: 1010 ppm | PAA, 1 min (ppm) [2, 6]: 465 ppm | PAA, 5 min (ppm) [2, 6]: 1170 ppm | PAA, 30 min (ppm) [2, 6]: 2525 ppm
